Reference: patent publication US6716597 (MIT, dated 2004)

T1: vinculin (endogenous, in Rat2 fibroblasts) (rat (Rat2 fibroblasts), UniProt P85972 1-1066)
T1 construct: whole, on cells
T1 sequence: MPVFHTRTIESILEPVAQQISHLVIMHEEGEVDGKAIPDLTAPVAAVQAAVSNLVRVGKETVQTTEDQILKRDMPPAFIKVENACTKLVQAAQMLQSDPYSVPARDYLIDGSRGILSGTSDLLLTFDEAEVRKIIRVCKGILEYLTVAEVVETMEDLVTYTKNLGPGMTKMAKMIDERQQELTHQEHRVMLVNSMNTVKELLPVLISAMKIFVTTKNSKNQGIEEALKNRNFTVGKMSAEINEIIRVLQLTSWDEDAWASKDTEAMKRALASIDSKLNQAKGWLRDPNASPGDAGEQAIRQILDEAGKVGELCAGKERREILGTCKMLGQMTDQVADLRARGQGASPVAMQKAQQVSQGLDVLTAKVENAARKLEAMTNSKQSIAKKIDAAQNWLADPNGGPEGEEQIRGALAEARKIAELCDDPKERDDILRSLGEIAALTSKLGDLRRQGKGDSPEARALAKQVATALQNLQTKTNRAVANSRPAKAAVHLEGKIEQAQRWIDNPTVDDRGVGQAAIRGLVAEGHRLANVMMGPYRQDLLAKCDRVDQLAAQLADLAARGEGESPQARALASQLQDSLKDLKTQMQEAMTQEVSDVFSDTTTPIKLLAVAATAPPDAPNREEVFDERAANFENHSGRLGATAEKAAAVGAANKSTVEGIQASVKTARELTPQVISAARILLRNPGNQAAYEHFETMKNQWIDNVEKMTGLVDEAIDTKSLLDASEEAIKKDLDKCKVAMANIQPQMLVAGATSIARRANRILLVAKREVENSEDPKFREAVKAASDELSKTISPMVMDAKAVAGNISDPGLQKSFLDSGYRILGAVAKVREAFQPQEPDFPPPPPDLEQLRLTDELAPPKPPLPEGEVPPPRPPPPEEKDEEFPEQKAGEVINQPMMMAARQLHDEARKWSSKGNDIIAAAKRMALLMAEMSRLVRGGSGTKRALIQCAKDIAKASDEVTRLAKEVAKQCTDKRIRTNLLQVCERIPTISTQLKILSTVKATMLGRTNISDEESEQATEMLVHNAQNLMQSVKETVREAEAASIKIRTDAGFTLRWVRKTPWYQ

B1: FPPPP-cyto (EGFP fused to ActA amino acids 231-360, without the mitochondrial targeting sequence) (other)
chain: VNASDFPPPPTDEELRLALPETPMLLGFNAPATSEPSSFEFPPPPTDEELRLALPETPMLLGFNAPATSEPSSFEFPPPPTEDELEIIRETASSLDSSFTRGDLASLRNAINRHSQNFSDFPPIPTEEEL
notes: not shown: EGFP (enhanced green fluorescent protein, Clontech)
B2: FPPPP-mito (EGFP fused to ActA amino acids 231-610, four EVH1-binding FPPPP repeats and the mitochon (other)
chain: VNASDFPPPPTDEELRLALPETPMLLGFNAPATSEPSSFEFPPPPTDEELRLALPETPMLLGFNAPATSEPSSFEFPPPPTEDELEIIRETASSLDSSFTRGDLASLRNAINRHSQNFSDFPPIPTEEELNGRGGRPTSEEFSSLNSGDFTDDENSETTEEEIDRLADLRDRGTGKHSRNAGFLPLNPFASSPVPSLSPKVSKISAPALISDITKKTPFKNPSQPLNVFNKKTTTKTVTKKPTPVKTAPKLAELPATKPQETVLRENKTPFIEKQAETNKQSINMPSLPVIQKEATESDKEEMKPQTEEKMVEESESANNANGKNRSAGIEEGKLIAKSAEDEKAKEEPGNHTTLILAMLAIGVFSLGAFIKIIQLRKNN
notes: not shown: EGFP (enhanced green fluorescent protein, Clontech); the ActA portion is fused to its C-term
B3: VASP (endogenous, in Rat2 fibroblasts) (other)
chain: ETVICSSRATVMLYDDSNKRWLPAGTGPQAFSRVQIYHNPTANSFRVVGRKLQPDQQVVINCAIIRGVKYNQATPIFHQWRDARQVWGLNFGSKEDAAQFAIGMANALEALEGGGPPPAPAPPAWSTQNGPSPEELEQQKRQPEHLERRVSNAGGPPAPPAGGPPPPPGPPPPPGPPPPPGLPPSGVSGAGHGTGVAPPPAPPLPTAQGPSSGGSGAPGLAAAIAGAKLRKVSKEEASGGPLAPKAENSRGTGGGLMEEMNAMLARRRKATQVGEKPPKDESASQEESEARIPAQSEPVRRPWEKNSTTLPRMKSSSSVTTSEAHPSVPSSSDDSDLERVKQELVEEVRKELQKMKEEIIEVFVQELRKRGSP
notes: whole, on cells; also called vasodilator-stimulated phosphoprotein

Key:
[1] = target: B3; experiment: immunofluorescence in Rat2 cells expressing the construct
[2] = target: T2, p34 component of the Arp2/3 complex (endogenous, in Rat2 fibroblasts) (rat (Rat2 fibroblasts), UniProt P85970 1-300); experiment: immunofluorescence in FPPPP-mito Rat2 cells
T2 construct: whole, on cells

[3] = target: T1, vinculin (endogenous, in Rat2 …); experiment: immunofluorescence in FPPPP-mito Rat2 cells
[4] = target: B2; experiment: immunofluorescence co-localisation in Rat2 cells expressing the construct

Binder: B1
- binding result [1]: binds

Binder: B2
- binding result [2]: no binding
- binding result [3]: no binding

Binder: B3
- binding result [4]: binds
